Measurements from the nanobody polyreactivity screen of Harvey et al. (2022).

Assay: yeast display, Sf9 membrane polyspecificity reagent, FACS + sequencing; frameworks hold sequencing errors
Procedure, shortened: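 Genes from sorted yeast were amplified by colony PCR, read by MiSeq 2 × 250 sequencing and filtered on CDR length. These cells carried a synthetic nanobody library in Saccharomyces cerevisiae BJ5465 and were sorted by FACS into low and high (top ~1%) gates on anti-HA and streptavidin fluorescence. Polyreactivity is labelled according to the gate of origin.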

Sequence	polyreactivity (PSR sort gate)
QVQLVESGGGLVQAGGSLRLSCAASGFIFEYNTMGWYIQAPGKERELVAAISFIGGRTYYADSVKRRFTLSRDNAKNTVYLQMNSLKPVDTAVNYCNKRYGGYYSGARRVLYYYWGQGTQVTVSS	high polyreactivity
QVQLEESGGGLVQAGGSLRISCAASGRTIGPYAMGWYRQARGKERELVAAISGGGSTNYADSVKGRFTISRDNAKNSDYLQMNSLKPEDTAVYYCNTEYPISGEEEYWGQGTHVTVSS	low polyreactivity
QVQLVESGGGLVQAGGSLRLSCAASGSTFYYYAMGWYRQAPGKERELVAAITLRGTSTYYADSVKGRFTISRDNAKNTVYLQMNRLKPEDTAVYYCAVETYYSIFDIYDYWGQGTQVTVSS	low polyreactivity
QDQLVESRGVLVQAGGTLRLSCAASGSTFVYYVMGWYRQAPVKERELVAAISWSDDSTYYADSVKGRFTISRDNAKNTVYLQMNSLIPVDTAVYYCAATGYPFYTSGDIEYYYWGQGTQVTVSS	low polyreactivity
QVQLVESGGGLVQAGGSLRLSCAASGSTFAQNVMGWYRQAPGKERELVAAITSSGSTNYADSVKGRFTISRDNAKNTVYLQMNILKPEDTAVFYCAKDVLAPYSRHDYWGQGTQVTVSS	low polyreactivity
QVQLQESGGGLVQAGGSLRLSCAASGNISVTGFMGWYRQATGKERELVASIGIGGTTYYADSVKGRFSISRDNAKNTVYLQMNSLKPEDTAVYYCAARYLYYAYSYWGQGTQVTVSS	low polyreactivity
QVQLVESGGGLVQAGGSLRLSCAASGSTFGWYAMGWYRQAPGKERELVASISRSGGRTFYADSVKGRFTISRDNAKNTVYLQMNRLKPEDTAVYYCAADALIYYKGSPDYYWGQGTQVNVSS	high polyreactivity
QVQLVESWGGLVQAGGSLRLSCAASGSIFFPNAMGWYRQAPWKERELVAAIRGGTNTYYADSVKGRFTISRDNAKNTVYLQMNSLKPEDTAVYYCAARRSSHWFTYDYWGQGTQVTVSS	high polyreactivity
QVQLVESGGGLVQAGGSLRLSCAASGSTFTVYAMGWYRQAPGKERELVAGISSGGSTYYADSVKGRFTISRDNAKNTVYLQMNSLKPEDTAVYYCAALRVRVPLGTYGYWGQVTQVTVSS	high polyreactivity
QVQLVESGGGLVQAGGSLRLSCAASGIYAYVMGWYRPAPGKERELVAAISGTGGRTYYADSVKGRFTISRDNAKNTVYLQMNSLKPEDTAVYYCAARGIYQPKTFDYWGQGTQVTVSS	high polyreactivity
KVQLVESGGGLVQAGGRLRLSCAPSGSIFGTNTMGWYRQAPGTERELVAAIRLSDSSTYYADSVKGRFTISRDNAKNTVYLQMKSLKPEDTAVYDCAVDYRAYHYYRYDYWGQGTQVTVSS	low polyreactivity
QVQLVESGGGLVQAGGSLRLSCAASGSILYANAMGWYRQAPGKERELVAAISARGTSTYYADSVKGRFTISRDNAKNTVYLQMNSLKPEDTAVYYCATGRKNAAQRWGYYYWGQGTQVTVSS	high polyreactivity
QVQLVESGGGLVQAGGSLRLSCAASGSTFDPYAMGWYRQAPGIERELVAAITGRGGSTYYADSVKGRFTISRDNAKNTVYLQMNSLKPEDTAVYYCNAEGDKRRDRYDYWGQGSQVTVSS	low polyreactivity
QVQLVESGGGLVQAGGSLRLTCAASGRTFTLNSMGWYRQAPGKERELVAAIRRGGSTYYADSVKGRFTISRDNAKNTVYLQMNSLKPVDTAVYYCAAYKGSYGGYRMQYSYNYWGQGTQVTVSS	high polyreactivity
QVQLVESGGGLVQAGGSLRLSCAASGRTFRKYAMGWYRQAPGKERELVAAISWSGGSTYYANSVKGRFTISRDYAKNTVYLQMNILKPEDTAVYYCAAVPVHTGSLYWGFTTGYDYWGQGTQVTVSS	low polyreactivity
QVQLVESGGGLVQAGGSLRLICAASGRIFKINAMGWYRQAPGKERELVAGISGSGSDTYYADSVKGSFTISRDNAKYTVYLQMNSLKPEDTAVYYCAAVAYDWALFYYWGQGTQVTVSS	low polyreactivity
QLQLVESGGGLVQAGGSLRLRCAASGRIFVRYAMGWYRQEPGKERELVAAISTRGGSTYYADSVKGRFTISRDKAKNTVYLQMNSLKAEDTAVYYCASGPRPRPSDYWGQGTQVTGSS	high polyreactivity
QVELVESGGGLVLAGGSLRLSCADSGRTFSYYAMGWYRQAPGKERELVAVITSSGGSTSYADSVKGRFTISRDNAKNTVYLQMNSLKPEDTAVYDCAADPLAVYWAYYLIGVYYWGQGTQVTVSS	high polyreactivity
QVQLVYSGGGLVQAGGSLRLSCAASGLILWPYTMGWYRQSPWKERELVAAISSSGGSTYYADSVKGRFTISRDNAKNTVYLQMNSLKPEDTAVYYCAAVCWVISGKNGAGSMDYWGLGTQVTVSS	high polyreactivity
QVQLVESGGGLVQAGGSLRLSCAASGYTYWQYAMGWYRQAPGKERELVATITSRGGSTYYADSVKGRFTISRDNAKNTVYLQMNSLIPEDTAVYYCNARRRYSTRRSDYWGQGTQVTVSS	high polyreactivity
QVHLVESGGGIVQAGGSLPLTCAAYGSIFNRYAMGWYRPAPGKERQLVAAISLTSGSTYYADYVKGRFTISRDNEKITVYLQMNSLKPEDTAVYYCATRRKVGPTQVGFYYRGGVDYWGQGTQVTVSS	high polyreactivity
QVQLVESGGGLVQAGGSLRLSCAASGSIFDIYGMGWYRQAPGKERELVASISGGAGSTNYADSVKGRFTISRDHAKNTVYLQMNSLKPEDTAVYYCAAEVYVPDYFQHKFDVEYEYWGQGTQVTVSS	low polyreactivity

Sequence	polyreactivity (PSR sort gate)
QDQLVESGGGLVQAGGSLRLSCAASGRTFRYNAMGWYRQAPGKERELVAAISGRGSSTYYADSVKGRFTISRDNAKNTVYLQMNSLKPEETAVYYCAALPASVRRPGWHDYWGQGTQVTVSS	high polyreactivity
QVQLVESGGGLVQAGGSLRLSCAASGFTFGPYDMGWYRQAPGKERELVAAITDSSGSTHYADSVKGRFTISRDNAKNTVYLQMNSLKPEDTAVYYCAAVVYYTFDYWGQGTQVTVSS	low polyreactivity
QVQLVESGGGLVQAGGSLRLSCAASGRIFYEYAMGWYRQAPGKERELVAISTSGGNTYYADSVKGRFTISRDNAKNTVYLQMNSLKPEDTAVYYCAARLQYYPYYYWGQGTQVTVSS	high polyreactivity
QVQLVESGGGLVQAGGSLRLSCGGSGSTFYVNAMGWYRQAPGKEREFVAAITWNSGSTYYADSVKGRFTISRDNAKNTVYLQMHSLKPEDTAVYYCAAVLSVRVYGYDYWGQGTQVTVSS	low polyreactivity
QVQLVESGGGLVQAGGSLRLSCAASGSIFYVYAMGWYRQAPGKERELVAAITSSGDTTYYADSVKGRFTISRDNAKNTVYLQMNSLKPEDTAVYYCAKVFGPTDYLTGTFKGDYWGQGTQVTVSS	low polyreactivity
QVQLVESGGGVVQAGGSLRLSCAASGRIFRYYTMGWYRQAPGKERELVAAITSSGGSTYYADSVKGRFTISRDNAKNTVYLQMNSLKPEDTAVYYCATRSYVFAWEFNYWGQGSQVTVSS	high polyreactivity
QVQLVESGGGLVQAGGSLRLSCAASGFIFADYTMGWYRQPPGKERELVAAITRSGDSTYYADSVKGRFTISRDNAKNTVYLQMNSLKPEDTAVYYCNAVNDWYYAYYGVTSFRSYDYWGQGTQVTVSS	low polyreactivity
QVQLVESGGGLVQAGGSLRLSCAASGSIFSYYAMGWYRQAPGKERELVASITYSGGSTYYADSVKGRFTISRDNAKNTVYLQMNSLKPEDTAVYYCAAPLAYEGDYWGQGTQVTVSS	low polyreactivity
QVQLVESGGGLVQAGGSLRLSCAASGRIFGIYAMGWYRQAPGKERELVASITGSSGSTNYADSVKGRFTISRDNAKNTVYLQMNSLKPEDTAVYYCAADIPSYYWWRAYDYWGQGTQVTVSS	low polyreactivity
QDQHVESGGGLVQAGGSLRLSCAASGLIFYYNMGWNRQAPRKERELVAAISSSGGSTSYADSVKGRFTISRDNAKNTVYLQMNSLKPEDTAVYYCAADSYPAYLGFVGFDYWGQGTQVTVSS	low polyreactivity
QVQLVESGGGLVQAGGSLRLSCAASGYTFYAYAMGWYRQAPGKERELVATISSGGRTYYADSVKGLFTISRDNAKNTVYLQMNSLKPEDTAVYYCAARKTRYISRFDYWGQGTQVTVSS	high polyreactivity
QVQLVESGGGLVQAGGSLRLSCAASGSTFRYYAMGWYRLAPGKERELVAAITASGTSTYYADSVKGRFTISRDNAKNTVYLQMNSLKPEDTAVYYCAARWRYGYYWGQGTQVTVSS	high polyreactivity
QVQLVESGGGLVQAGGSLRLSCAASGRIFTTYAMGWYRQAPGKERELVARIRWRGGSTYYADSVKGRFTISRDNAKNTVYLKMNSLKPEDTAVYYCNADKYYGFDYWGQGTQVTVSS	high polyreactivity
QVQLVESGGGLVQAGGSLRLSCAASGRTFGVNAMGWYRQAPGKERELVATIRRGGSTYYADSVKGRFTISRDNAKNTVYLQMNSLKPEDTAVYYCNASHVTWNRKYDYWGQGTQVNVSS	low polyreactivity
QFQLVESGGVLVQAGGSLRLSCAASGSTFNHYAMGWYRQARGKERELVADITKSGASTYADSVKGRFTISRDNAKNSVYLQMNSLKPEDTAVYYCAAGRRNYGTKGRGDYWGQGTQVTVSS	low polyreactivity
QLQLVESGGGLVQAGGSLRLSCAASGRIFRGYAMGWYRQAPGKERELVAAISGSGGSTYYADSVKGRFTISRDNAKNSVYLQMNSLKPEDTAVYYCAAEGRNYYGSYDYWGQGTQVTVSS	low polyreactivity
QVQLVESGGGLVQAGGSLRLSCAASGRIFATNARGWYRQAPGKERELVAVISSGGSTNYADSVKGRFTISRDNAKNTVYLQMNSLKPEDTAVYYCAASPGSRPTQPYDYWGQGTQVTVSS	low polyreactivity
QFQLVESGGGLVHAGGSLRLSCAASGITYWAYSMGWYRQARGKERELVAAIRFRGRTYYADSVKGRFTISRDNAKNSVYLQMNSLKAEDTAVYYFDADLSYWDDFEYWGQGNQVTVSS	low polyreactivity
QVQLVESGGGLVQAGGSLRLSCAASGRIFRYYAMGWYRQAPGKERELVATISRSGGSTFYADSVKGRFTISRDNAKNTVYLQMKSLKPEDTAVYYCAADYYSYVVGRIYYWGQGTQVTVSS	high polyreactivity
QVQLVESGGGLVQAGGSLRLSCAASGFIFTDYTMGWYRQAPGKERELVAAIDSSGGGTHYADSVKGRFTISRDNAKNTVYLQMNSLKPEDTAVYYCAAADYLIQFWYQYDYWGQGTQVTVSS	low polyreactivity
QVQLVESGGGLVQAGGSLRLSCAASGSIFSQYAMGWYRQAPGKERELVAAITYGGGSTYYADSVKGRFTISRDNAKNTVYLQMNSLKPEDTAVYYCAKEFKYWGYPYDYWGQGTQVTVSS	low polyreactivity
